Experimental data: US20170130205A1, “METHOD FOR PREPARING INDUCED PLURIPOTENT STEM CELLS” (TAIPEI VETERANS GENERAL HOSPITAL, priority 2014, published 2017)

Key:
Format in all cases: cell-based, human
FD-iPSC-CMs [1] = experiment: MED64 multi-electrode field potential recording of beating iPSC-derived cardiomyocytes (Fabry); settings: post-induction day 60
Procedure: (§1) The recording area of probes with 64 recording electrodes (MED probe; MED-P515A, Alpha Med Scientific, Osaka) for the MED64 System (Alpha Med Scientific) was coated with 2 ml of 0.1% gelatin that had been incubated at 37° C. for 1 hour. Beating iPSC-derived CMs were transferred onto the MED-probe dishes, and the electrical potentials were recorded with the MED64 multi-electrode array system. […] To evaluate the compounds, a cluster was treated with a compound in stepwise concentration increments. The medium was perfused at 1.7 ml/min at 37° C., and the field potentials were measured for 5 min.

Ctrl-iPSC-CMs = experiment: MED64 multi-electrode field potential recording of beating iPSC-derived cardiomyocytes (control); settings: post-induction day 60, isoproterenol 0, 1, 10 μM
Procedure: as §1

FD-iPSC-CMs [2] = experiment: Alox12/Alox15 protein expression on Gb3 treatment (Western blot, immunofluorescence), Fabry cells; settings: FD-iPSC-CMs (Pt1 to Pt8), post-induction day 20; Gb3 15 μmole/L, 24 hours; vs ESC-CMs and Ctrl-iPSC-CMs
Procedure: (§2) The extraction of proteins from cells and western blot analysis were performed as described previously (Yang et al., Inhibition of cancer stem cell-like properties and reduced chemoradioresistance of glioblastoma using microrna145 with cationic polyurethane-short branch pei. Biomaterials. 2012; 33:1462-1476). Whole cell lysates were separated by electrophoresis on 12% SDS-PAGE and transferred to a polyvinylidene fluoride membrane. The membranes were blocked with 5% nonfat milk at room temperature for 1 hour. The blots were incubated with primary antibodies in TBST buffer containing 3% nonfat milk at 4° C. overnight and subsequently with secondary antibodies conjugated with peroxidase at 25° C. for 1 hour. The immunoblots were developed using an enhanced chemiluminescence system, and the luminescence was visualized on X-ray film.
(§3) The living cells and spheres were fixed in 4% paraformaldehyde, permeabilized in 0.1% Triton X-100, and blocked in 5% normal goat serum in PBS. […] The total amount of retained autofluorescent material was determined in the red (546) and green (488) channels by quantifying the pixel area (Adobe Photoshop/Image J software). The cellular area contents of the normal iPSC-CMs and the FD-iPSC-CMs were quantified using the ImageJ software package (National Institutes of Health, Bethesda, MD).

ESC-CMs, Ctrl-iPSC-CMs = experiment: Alox12/Alox15 protein expression on Gb3 treatment (Western blot, immunofluorescence), control cells; settings: post-induction day 20, Gb3 15 μmole/L, 24 hours
Procedure: as §2, §3

Ctrl-iPSC-CMs or ESC-CMs = experiment: ELISA of 12-HETE/15-HETE secretion into conditioned medium on Gb3 treatment, control cells; settings: Gb3 15 μmole/L, 24 hours
FD-iPSC-CMs [3] = experiment: ELISA of 12-HETE/15-HETE secretion into conditioned medium on Gb3 treatment, Fabry cells; settings: FD-iPSC-CMs (Pt1 to Pt8); Gb3 15 μmole/L, 24 hours
FC-iPSC-CMs [4] = experiment: Secreted levels of LysoGb3, 12(S)-HETE and 15(S)-HETE from FC-iPSC-CMs
Procedure: For liquid chromatography for lysoGb3 and Gb3 analysis, we used Waters Alliance 2795XE HPLC system to perform stepwise gradient elution. The flow rate was 0.3 mL/min in lysoGb3 or Gb3 experiment. Mass spectrometry of lysoGb3 and Gb3 detection was performed in positive ion mode (ES+) on a triple quadruplemass spectrometer (Quattro Ultima, Waters, Milford, Mass.) with NeoLynx software version 4.1. The analyzing methods were modified from the protocol provided by Shire Human Genetic Therapies. LC-MS/MS analysis was performed using an LTQ Orbitrap (Thermo Fisher Scientific) as described previously.
Whole blood samples were collected into 1.8 mg/ml EDTA-K3 tubes and centrifuged at 2500×g for 20 min at room temperature to obtain the plasma samples. The aliquots were stored at −80° C. until use. Enzyme-linked immunoassays (ELISAs) were used for 15(S) HETE (Cayman Chemicals) and 12(S) HETE (Detroit R&D) quantification according to the manufacturers' instructions (Detroit R&D).
(§4) However, the interrelationship between treatment onset and the efficacy of ERT drugs in FC with fibrotic progression remains unclear. Therefore, we compared the treatment efficacy of GLA between early (5 μg/ml of GLA from day 20 to day 60 post-differentiation; FIG. 13C) and late (5 μg/ml of GLA from day 40 to day 60 post-differentiation; FIG. 13D) administrations in FC-iPSC-CMs, and evaluated the levels of cardiac Alox12/15 and fibrotic markers at day 60 post-differentiation. […] We therefore tested the treatment efficacy of the pharmacological inhibition of cardiac Alox12/15 in combination with ERT (FIG. 15).

[5] = test system: ESC-CMs, Ctrl-iPSC-CMs, FC-iPSC-CMs; experiment: GLA enzyme activity in cardiomyocytes with administration of GLA; settings: day 20 post-induction; GLA 5 μg/ml for 5 days; all experimental cells
Procedure: Cells were washed twice with PBS, incubated in 200 μl of fresh medium at 37° C. and 5% CO2 for 2 hours, and washed twice with PBS. Afterward, the cells were lysed in 60 μl of Lysis Buffer (27 mM of sodium citrate, 46 mM of sodium phosphate dibasic, 0.5% Triton X-100, pH 4.6). Lysates (10 μl) were added to 50 μl of Assay Buffer (Lysis Buffer without Triton X-100) containing 6 mM of 4-MUG and 117 mM of N-acetyl-D-galactosamine (GalNac, an inhibitor of -N-acetylgalactosaminidase, which is a lysosomal enzyme present in cell lysates that hydrolyzes 4-MUG) and incubated at 37° C. for 1 hour. The Stop Solution (0.4 M glycine, pH 10.8; 70 μl) was added, and the fluorescence was read on a Victor plate reader (Perkin-Elmer, Waltham, Mass.) at 355 nm excitation and 460 nm emission. A Micro BCA Protein Assay Kit (Pierce, Rockford, Ill.) was used according to the manufacturer's instructions to determine the protein concentration from 40 μl of cell lysate from each well. The total protein amount in each well was used to normalize the enzyme activity. A 4-methylumbelliferone (4-MU) standard curve ranging from 1.3 nM to 30 μM was run in parallel to calculate the absolute -Gal A activity, expressed as nmol of 4-MU released/mg protein/hour (nmol/mg protein/hour), which was normalized to the percentage of the untreated wild-type (% WT) enzyme activity. […]

FC-iPSC-CMs [6] = experiment: Immunofluorescence of Alox12/15 and fibrotic markers in FC-iPSC-CMs under ERT; settings: read at day 60
Procedure: (§5) The living cells and spheres were fixed in 4% paraformaldehyde, permeabilized in 0.1% Triton X-100, and blocked in 5% normal goat serum in PBS. After being washed three times with PBS, the cells were incubated with goat anti-mouse secondary antibodies conjugated with FITC (green) or PE (red). DAPI (blue) was used as the nuclear stain. Labeled cells were imaged with a laser-scanning confocal microscope (Olympus). The total amount of retained autofluorescent material was determined in the red (546) and green (488) channels by quantifying the pixel area (Adobe Photoshop/Image J software). The cellular area contents of the normal iPSC-CMs and the FD-iPSC-CMs were quantified using the ImageJ software package (National Institutes of Health, Bethesda, MD).
as §4

FC-iPSC-CMs [7] = experiment: Cell size of FC-iPSC-CMs by quantification of cTnT-positive margins; settings: early-administration: 5 μg/ml GLA day 20 to day 60
Procedure: as §5, §4

[8] = early-administration of GLA, day 60, vs untreated cells
[9] = late-administration of GLA, day 60

With `CC(C)NCC(O)c1ccc(O)c(O)c1` (stereo not shown) [Isoproterenol, isoproterenol] the “electrophysiological response (beating frequency) to the drug” value (FD-iPSC-CMs [1]) was “random occurrences of arrhythmias” and the “effect on beating frequency of contractile colonies” value (Ctrl-iPSC-CMs) was “dose-dependent chronotropic effect”.

With globotriaosylceramide [Gb3] the Alox12/Alox15 protein expression (FD-iPSC-CMs [2]) was “upregulation of Alox12/Alox15 at higher magnitudes”, the “Alox12 and Alox15 protein expression” value (ESC-CMs, Ctrl-iPSC-CMs) was “increased” and the “secretion of 12-HETE/15-HETE” value (Ctrl-iPSC-CMs or ESC-CMs) was “mildly increase”. For the same molecule, the “secretion of 12-HETE and 15-HETE” value (FD-iPSC-CMs [3]) was “largely stimulated”.

B1: α-galactosidase A (protein, UniProt P06280 32-429, looked up)
Alpha-galactosidase A: LDNGLARTPTMGWLHWERFMCNLDCQEEPDSCISEKLFMEMAELMVSEGWKDAGYEYLCIDDCWMAPQRDSEGRLQADPQRFPHGIRQLANYVHSKGLKLGIYADVGNKTCAGFPGSFGYYDIDAQTFADWGVDLLKFDGCYCDSLENLADGYKHMSLALNRTGRSIVYSCEWPLYMWPFQKPNYTEIRQYCNHWRNFADIDDSWKSIKSILDWTSFNQERIVDVAGPGGWNDPDMLVIGNFGLSWNQQVTQMALWAIMAAPLFMSNDLRHISPQAKALLQDKDVIAINQDPLGKQGYQLRQGDNFEVWERPLSGLAWAVAMINRQEIGGPRSYTIAVASLGKGVACNPACFITQLLPVKRKLGFYEWTSRLRSHINPTGTVLLQLENTMQMSLKDLL
notes: enzyme used as enzyme replacement therapy (ERT) in the FC-iPSC-CM platform
With B1 the “secreted level of 12-HETE” value (FC-iPSC-CMs [4]; [8]) was “significantly suppressed”, the “secreted level of 15-HETE” value (FC-iPSC-CMs [4]; [8]) was “significantly suppressed” and the “secreted level of lysoGb3” value (FC-iPSC-CMs [4]; [8]) was “significantly suppressed”. For the same molecule, the “secreted level of lysoGb3” value (FC-iPSC-CMs [4]; [9]) was “significant reduction”, the “secretion of 12(S)-HETE” value (FC-iPSC-CMs [4]; [9]) was “negligible inhibitory effect” and the “secretion of 15(S)-HETE” value (FC-iPSC-CMs [4]; [9]) was “negligible inhibitory effect”. For the same molecule, the “GLA activity in cells” value [5] was “elicited high GLA activity”, the “expression levels of Alox12/15 and fibrotic biomarkers MMP1, TGF-β and collagen1” value (FC-iPSC-CMs [6]; early-administration: 5 μg/ml GLA day 20 to day 60) was “suppressed” and the fibrotic protein expression (FC-iPSC-CMs [6]; late-administration: 5 μg/ml GLA day 40 to day 60) was “negligible inhibitory effect”. For the same molecule, the “cell size of FC-iPSC-CMs” value (FC-iPSC-CMs [7]) was “prominently reduced”.
